Here are results for two molecules from US20210205286A1 (UNM RAINFOREST INNOVATIONS, published 2021).

In experiment [1] the target is T1, USP9X (endogenous) (UniProt Q93008 1-2554, limits assumed).
T1 construct: also called deubiquitinating enzyme USP9X; DUB USP9X
Put plainly: co-IP, anti-FLAG IP, blot for endogenous USP9X, HEK293T (FIG. 3C).

The target in experiment [2] is T2, LAMP2 (endogenous) (UniProt P13473 29-410, limits assumed, glycosylated (binding told as glycan-dependent)).
T2 construct: Integral lysosomal membrane glycoprotein
T2 sequence (P13473 29-410 limits assumed): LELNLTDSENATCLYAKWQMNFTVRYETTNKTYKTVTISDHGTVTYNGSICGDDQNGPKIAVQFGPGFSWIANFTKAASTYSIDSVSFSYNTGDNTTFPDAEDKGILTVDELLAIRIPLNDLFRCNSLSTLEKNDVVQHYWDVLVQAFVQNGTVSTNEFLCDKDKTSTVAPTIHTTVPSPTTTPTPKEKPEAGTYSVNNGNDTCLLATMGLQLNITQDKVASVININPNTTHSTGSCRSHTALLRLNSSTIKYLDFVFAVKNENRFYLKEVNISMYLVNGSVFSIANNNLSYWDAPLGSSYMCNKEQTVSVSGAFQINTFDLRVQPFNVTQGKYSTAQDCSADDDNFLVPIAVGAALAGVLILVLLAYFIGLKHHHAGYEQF
Put plainly: co-IP, anti-FLAG IP, blot for endogenous LAMP2, HEK293T, 1 mM LLOMe 30 min (FIG. 2B). Here is the method:
(A) APEX2 proximity biotinylation analysis. […] Biotinylated proteins were then affinity-isolated on streptavidin beads and analyzed by immunoblotting in response to LLOMe. (B) Co-immunoprecipitation (Co-IP) analysis of interactions between LAMP2 and Gal9. HEK293T cells expressing FLAG-tagged Gal9 or glycan recognition mutant forms of Gal9 (individual R65A, R239A, or double/combined R65A/R239A were treated with 1 mM LLOMe for 30 min in full medium. IP, anti-FLAG antibody; immunoblotting with endogenous LAMP2. (C) Immunofluorescence confocal microscopy visualization of Gal9 puncta in Hula cells transfected with FLAG-Gal9^WT or double mutant FLAG-Gal9^{R65A/R239A} and treated with lysosomal damaging agent (1 mM LLOMe) in full medium for 30 min. Cells were immunostained for FLAG-Gal9. Scale bar, 10 μM . (D) Analysis of FLAG-Gal9 puncta formation in Huh7 WT cells transfected with FLAG-Gal9 and respective mutants. Cells as in (C) were treated as in (C), measured by FICM (blue: nuclei, Hoechst 33342; green: anti-FLAG antibody, Alexa-488). White masks, computer algorithm-defined cell boundaries; green masks, computer-identified Gal9 puncta. (E) Immunofluorescence confocal microscopy visualization of Ub puncta in Gal9WT^Huh7 and Gal9KO^Huh7 cells complemented with FLAG-Gal9^WT or FLAG-Gal9^{R65A/R239A}. […] (F) Endogenous Ub puncta quantified by HCM. […]

The target of experiment [3] is T2, LAMP2 (endogenous). Kind of experiment: co-IP, anti-GFP IP of GFP-tagged galectins, blot for endogenous LAMP2 (FIG. S2B). The text has this:
(B) Co-IP analysis of galectins and LAMP2. Cells expressing GFP-tagged galectins were subjected to anti-GFP immunoprecipitation followed by immunoblotting for endogenous LAMP2. (C) Schematic, strategy for stable HeLa Flp-In Gal9^Tet-ON which stably express mCherry-Gal9 induced by tetracycline. HeLa Flp-In Gal9^Tet-ON cells treated with LLOMe in a time dependent manner quantified by HCM. (D) HCM visualization of mCherry-Gal9 localization relative to LAMP2-positive lysosomes. Cells as in (C) were treated with LLOMe for 30 min in full medium and immunostained for endogenous LAMP2 and mCherry Gal9. (E) Immunofluorescence confocal microscopy visualization of mCherry-Gal9 localization relative to LAMP2-positive lysosomes. Cells as in (D) immunostained for endogenous LAMP2 and mCherry Gal9. Scale bar, 10 μM. (F) HCM visualization of mCherry-Gal9 localization relative to endogenous Ub puncta. Cells as in (C) were treated with LLOMe for 30 min in full medium and immunostained for endogenous Ub and mCherry Gal9. (G) Immunofluorescence confocal microscopy visualization of mcherry-Gal9 localization relative to endogenous Ub and LAMP1-positive lysosomes. Cells as in (C) were treated with LLOMe for 30 min in full medium and immunostained for endogenous Ub, LAMP1 and mCherry Gal9. Scale bar, 10 μM. […]

T1 sequence (Q93008 whole entry): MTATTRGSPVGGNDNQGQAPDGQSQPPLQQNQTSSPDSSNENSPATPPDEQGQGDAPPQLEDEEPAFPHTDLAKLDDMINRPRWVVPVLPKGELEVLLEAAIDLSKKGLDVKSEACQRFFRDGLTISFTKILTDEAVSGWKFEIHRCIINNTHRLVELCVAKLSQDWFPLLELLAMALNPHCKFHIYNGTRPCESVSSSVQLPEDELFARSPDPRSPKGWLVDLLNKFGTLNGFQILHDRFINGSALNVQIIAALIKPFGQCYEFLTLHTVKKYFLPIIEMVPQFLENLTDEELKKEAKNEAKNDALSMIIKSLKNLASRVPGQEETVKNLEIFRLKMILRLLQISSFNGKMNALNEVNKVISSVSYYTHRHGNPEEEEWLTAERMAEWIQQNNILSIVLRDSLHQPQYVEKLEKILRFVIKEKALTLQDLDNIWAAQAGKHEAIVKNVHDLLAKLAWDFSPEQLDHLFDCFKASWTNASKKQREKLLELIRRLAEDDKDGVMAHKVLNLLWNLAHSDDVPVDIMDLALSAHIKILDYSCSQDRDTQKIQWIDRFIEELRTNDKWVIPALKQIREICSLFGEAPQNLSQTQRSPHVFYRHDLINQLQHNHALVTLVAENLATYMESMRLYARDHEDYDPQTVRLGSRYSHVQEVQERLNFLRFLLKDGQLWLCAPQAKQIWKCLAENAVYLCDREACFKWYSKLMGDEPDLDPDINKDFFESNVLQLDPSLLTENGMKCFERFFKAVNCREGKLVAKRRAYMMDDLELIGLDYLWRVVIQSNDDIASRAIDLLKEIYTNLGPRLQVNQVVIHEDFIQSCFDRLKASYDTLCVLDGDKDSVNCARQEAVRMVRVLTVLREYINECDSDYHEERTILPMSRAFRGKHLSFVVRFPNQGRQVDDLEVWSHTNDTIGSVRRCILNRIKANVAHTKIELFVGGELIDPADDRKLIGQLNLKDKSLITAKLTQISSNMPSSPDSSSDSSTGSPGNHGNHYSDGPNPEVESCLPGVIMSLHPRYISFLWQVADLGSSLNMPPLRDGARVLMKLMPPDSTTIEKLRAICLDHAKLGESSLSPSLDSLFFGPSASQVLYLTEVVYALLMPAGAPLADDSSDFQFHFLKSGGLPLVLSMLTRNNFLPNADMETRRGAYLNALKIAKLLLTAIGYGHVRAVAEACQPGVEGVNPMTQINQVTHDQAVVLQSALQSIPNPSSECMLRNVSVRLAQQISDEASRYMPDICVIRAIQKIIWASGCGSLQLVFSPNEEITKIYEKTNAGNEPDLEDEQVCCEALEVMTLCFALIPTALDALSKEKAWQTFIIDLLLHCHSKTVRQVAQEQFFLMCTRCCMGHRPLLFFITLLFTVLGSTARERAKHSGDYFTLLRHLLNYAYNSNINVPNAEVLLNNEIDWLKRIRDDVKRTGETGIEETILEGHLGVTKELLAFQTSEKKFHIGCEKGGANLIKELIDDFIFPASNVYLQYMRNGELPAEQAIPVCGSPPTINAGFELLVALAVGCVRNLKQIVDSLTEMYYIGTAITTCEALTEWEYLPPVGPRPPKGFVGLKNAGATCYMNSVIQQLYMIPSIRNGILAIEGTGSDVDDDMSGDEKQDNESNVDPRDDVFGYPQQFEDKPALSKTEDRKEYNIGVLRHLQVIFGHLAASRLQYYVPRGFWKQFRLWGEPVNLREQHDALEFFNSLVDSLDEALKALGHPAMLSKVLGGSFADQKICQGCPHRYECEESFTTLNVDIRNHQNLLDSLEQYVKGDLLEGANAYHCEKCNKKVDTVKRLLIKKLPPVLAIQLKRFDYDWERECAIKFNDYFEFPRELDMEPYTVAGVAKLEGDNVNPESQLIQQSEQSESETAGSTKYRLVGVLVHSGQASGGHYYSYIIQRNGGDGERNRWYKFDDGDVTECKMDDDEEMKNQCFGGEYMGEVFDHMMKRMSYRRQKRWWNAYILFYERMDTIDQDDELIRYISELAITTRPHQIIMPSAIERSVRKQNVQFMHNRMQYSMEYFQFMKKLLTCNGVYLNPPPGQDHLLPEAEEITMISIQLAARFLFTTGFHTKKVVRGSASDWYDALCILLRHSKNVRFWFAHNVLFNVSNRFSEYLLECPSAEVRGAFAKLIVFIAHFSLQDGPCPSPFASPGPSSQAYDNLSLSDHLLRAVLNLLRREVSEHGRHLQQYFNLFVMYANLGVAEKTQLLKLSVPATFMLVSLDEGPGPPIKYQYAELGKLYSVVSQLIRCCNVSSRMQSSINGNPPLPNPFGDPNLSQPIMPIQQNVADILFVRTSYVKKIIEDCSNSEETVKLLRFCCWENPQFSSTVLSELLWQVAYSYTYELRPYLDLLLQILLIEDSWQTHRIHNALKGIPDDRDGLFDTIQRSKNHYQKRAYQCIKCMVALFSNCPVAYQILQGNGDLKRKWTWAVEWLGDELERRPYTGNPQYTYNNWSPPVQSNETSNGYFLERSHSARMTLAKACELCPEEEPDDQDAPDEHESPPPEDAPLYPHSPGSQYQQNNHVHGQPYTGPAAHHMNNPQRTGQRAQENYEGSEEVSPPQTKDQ

B1: FLAG-Gal9^R65A/R239A (other, UniProt O00182-2 1-323, looked up)
chain: MAFSGSQAPYLSPAVPFSGTIQGGLQDGLQITVNGTVLSSSGTRFAVNFQTGFSGNDIAFHFNPAFEDGGYVVCNTRQNGSWGPEERKTHMPFQKGMPFDLCFLVQSSDFKVMVNGILFVQYFHRVPFHRVDTISVNGSVQLSYISFQPPGVWPANPAPITQTVIHTVQSAPGQMFSTPAIPPMMYPHPAYPMPFITTILGGLYPSKSILLSGTVLPSAQRFHINLCSGNHIAFHLNPAFDENAVVRNTQIDNSWGSEERSLPRKMPFVRGQSFSVWILCEAHCLKVAVDGQHLFEYYHRLRNLPTINRLEVGGDIQLTHVQT
notes: also called double mutant; glycan recognition mutant; not shown: FLAG tag
In the case of B1, the values for the binding result in experiment [1] and in experiment [2] were “binds” and “no binding”, respectively.

B2: GFP-Gal8 (other, UniProt O00214 1-317, looked up)
chain: MMLSLNNLQNIIYNPVIPFVGTIPDQLDPGTLIVIRGHVPSDADRFQVDLQNGSSMKPRADVAFHFNPRFKRAGCIVCNTLINEKWGREEITYDTPFKREKSFEIVIMVLKDKFQVAVNGKHTLLYGHRIGPEKIDTLGIYGKVNIHSIGFSFSSDLQSTQASSLELTEISRENVPKSGTPQLRLPFAARLNTPMGPGRTVVVKGEVNANAKSFNVDLLAGKSKDIALHLNPRLNIKAFVRNSFLQESWGEEERNITSFPFSPGMYFEMIIYCDVREFKVAVNGVHSLEYKHRFKELSSIDTLEINGDIHLLEVRSW
notes: also called Galectin 8; GFP-tagged galectin; not shown: GFP
As to B2, the binding result in experiment [3] is “no binding”.
